Assay results taken from patent US20220306695A1, “COMPSTATIN ANALOGUES AND THEIR MEDICAL USES” (priority 2019, published 2022).
Positions of bridges follow the written chain, without caps; N, C: chain ends. Non-standard residues stand in square brackets, D forms with d. Trp(1-Me) = Cn1cc(C[C@H](N)C(=O)O)c2ccccc21; 1Nal = N[C@@H](Cc1cccc2ccccc12)C(=O)O; 2Nal = N[C@@H](Cc1ccc2ccccc2c1)C(=O)O; Sar = CNCC(=O)O

B1: Compound 44 (peptide)
peptide: Ac-EGSAICIWQDWGEHRC[Sar]EGE-NH2
modifications: disulfide 6-16
SMILES: CC[C@H](C)[C@H](NC(=O)[C@H](C)NC(=O)[C@H](CO)NC(=O)CNC(=O)[C@H](CCC(=O)O)NC(C)=O)C(=O)N[C@H]1CSSC[C@@H](C(=O)N(C)CC(=O)N[C@@H](CCC(=O)O)C(=O)NCC(=O)N[C@@H](CCC(=O)O)C(N)=O)NC(=O)[C@H](CCCNC(=N)N)NC(=O)[C@H](Cc2c[nH]cn2)NC(=O)[C@H](CCC(=O)O)NC(=O)CNC(=O)[C@H](Cc2c[nH]c3ccccc23)NC(=O)[C@H](CC(=O)O)NC(=O)[C@H](CCC(N)=O)NC(=O)[C@H](Cc2c[nH]c3ccccc23)NC(=O)[C@H]([C@@H](C)CC)NC1=O
B2: Compound 59 (peptide)
peptide: Ac-EGSAYCI[Trp(1-Me)]QDWGEHRCTE-NH2
modifications: disulfide 6-16
SMILES: CC[C@H](C)[C@@H]1NC(=O)[C@@H](NC(=O)[C@H](Cc2ccc(O)cc2)NC(=O)[C@H](C)NC(=O)[C@H](CO)NC(=O)CNC(=O)[C@H](CCC(=O)O)NC(C)=O)CSSC[C@@H](C(=O)N[C@H](C(=O)N[C@@H](CCC(=O)O)C(N)=O)[C@@H](C)O)NC(=O)[C@H](CCCNC(=N)N)NC(=O)[C@H](Cc2c[nH]cn2)NC(=O)[C@H](CCC(=O)O)NC(=O)CNC(=O)[C@H](Cc2c[nH]c3ccccc23)NC(=O)[C@H](CC(=O)O)NC(=O)[C@H](CCC(N)=O)NC(=O)[C@H](Cc2cn(C)c3ccccc23)NC1=O
B3: Compound 11 (peptide)
peptide: Ac-[Sar]CIWQDWGEHRCT-NH2
modifications: disulfide 2-12
SMILES: CC[C@H](C)[C@@H]1NC(=O)[C@@H](NC(=O)CN(C)C(C)=O)CSSC[C@@H](C(=O)N[C@H](C(N)=O)[C@@H](C)O)NC(=O)[C@H](CCCNC(=N)N)NC(=O)[C@H](Cc2c[nH]cn2)NC(=O)[C@H](CCC(=O)O)NC(=O)CNC(=O)[C@H](Cc2c[nH]c3ccccc23)NC(=O)[C@H](CC(=O)O)NC(=O)[C@H](CCC(N)=O)NC(=O)[C@H](Cc2c[nH]c3ccccc23)NC1=O
B4: Compound 56 (peptide)
peptide: Ac-EGSAFCI[1Nal]QDWGEHRCTE-NH2
modifications: disulfide 6-16
SMILES: CC[C@H](C)[C@@H]1NC(=O)[C@@H](NC(=O)[C@H](Cc2ccccc2)NC(=O)[C@H](C)NC(=O)[C@H](CO)NC(=O)CNC(=O)[C@H](CCC(=O)O)NC(C)=O)CSSC[C@@H](C(=O)N[C@H](C(=O)N[C@@H](CCC(=O)O)C(N)=O)[C@@H](C)O)NC(=O)[C@H](CCCNC(=N)N)NC(=O)[C@H](Cc2c[nH]cn2)NC(=O)[C@H](CCC(=O)O)NC(=O)CNC(=O)[C@H](Cc2c[nH]c3ccccc23)NC(=O)[C@H](CC(=O)O)NC(=O)[C@H](CCC(N)=O)NC(=O)[C@H](Cc2cccc3ccccc23)NC1=O
B5: Ac-IC(1)X…(1)T-NH2 with Leucine at position 3 (peptide)
peptide: Ac-ICLWQDWGEHRCT-NH2
modifications: disulfide 2-12
SMILES: CC[C@H](C)[C@H](NC(C)=O)C(=O)N[C@H]1CSSC[C@@H](C(=O)N[C@H](C(N)=O)[C@@H](C)O)NC(=O)[C@H](CCCNC(=N)N)NC(=O)[C@H](Cc2c[nH]cn2)NC(=O)[C@H](CCC(=O)O)NC(=O)CNC(=O)[C@H](Cc2c[nH]c3ccccc23)NC(=O)[C@H](CC(=O)O)NC(=O)[C@H](CCC(N)=O)NC(=O)[C@H](Cc2c[nH]c3ccccc23)NC(=O)[C@H](CC(C)C)NC1=O
B6: Compound 57 (peptide)
peptide: Ac-EGSAFCI[Trp(1-Me)]QDWGEHRCTE-NH2
modifications: disulfide 6-16
SMILES: CC[C@H](C)[C@@H]1NC(=O)[C@@H](NC(=O)[C@H](Cc2ccccc2)NC(=O)[C@H](C)NC(=O)[C@H](CO)NC(=O)CNC(=O)[C@H](CCC(=O)O)NC(C)=O)CSSC[C@@H](C(=O)N[C@H](C(=O)N[C@@H](CCC(=O)O)C(N)=O)[C@@H](C)O)NC(=O)[C@H](CCCNC(=N)N)NC(=O)[C@H](Cc2c[nH]cn2)NC(=O)[C@H](CCC(=O)O)NC(=O)CNC(=O)[C@H](Cc2c[nH]c3ccccc23)NC(=O)[C@H](CC(=O)O)NC(=O)[C@H](CCC(N)=O)NC(=O)[C@H](Cc2cn(C)c3ccccc23)NC1=O
B7: Compound 58 (peptide)
peptide: Ac-EGSAFCI[Trp(1-Me)]QDWGEHRCEGE-NH2
modifications: disulfide 6-16
SMILES: CC[C@H](C)[C@@H]1NC(=O)[C@@H](NC(=O)[C@H](Cc2ccccc2)NC(=O)[C@H](C)NC(=O)[C@H](CO)NC(=O)CNC(=O)[C@H](CCC(=O)O)NC(C)=O)CSSC[C@@H](C(=O)N[C@@H](CCC(=O)O)C(=O)NCC(=O)N[C@@H](CCC(=O)O)C(N)=O)NC(=O)[C@H](CCCNC(=N)N)NC(=O)[C@H](Cc2c[nH]cn2)NC(=O)[C@H](CCC(=O)O)NC(=O)CNC(=O)[C@H](Cc2c[nH]c3ccccc23)NC(=O)[C@H](CC(=O)O)NC(=O)[C@H](CCC(N)=O)NC(=O)[C@H](Cc2cn(C)c3ccccc23)NC1=O
B8: Compound 45 (peptide)
peptide: Ac-EGSAFCIWQDWGEHRC[Sar]E-NH2
modifications: disulfide 6-16
SMILES: CC[C@H](C)[C@@H]1NC(=O)[C@@H](NC(=O)[C@H](Cc2ccccc2)NC(=O)[C@H](C)NC(=O)[C@H](CO)NC(=O)CNC(=O)[C@H](CCC(=O)O)NC(C)=O)CSSC[C@@H](C(=O)N(C)CC(=O)N[C@@H](CCC(=O)O)C(N)=O)NC(=O)[C@H](CCCNC(=N)N)NC(=O)[C@H](Cc2c[nH]cn2)NC(=O)[C@H](CCC(=O)O)NC(=O)CNC(=O)[C@H](Cc2c[nH]c3ccccc23)NC(=O)[C@H](CC(=O)O)NC(=O)[C@H](CCC(N)=O)NC(=O)[C@H](Cc2c[nH]c3ccccc23)NC1=O
B9: Compound 60 (peptide)
peptide: Ac-EGSAFCI[2Nal]QDWGEHRCTE-NH2
modifications: disulfide 6-16
SMILES: CC[C@H](C)[C@@H]1NC(=O)[C@@H](NC(=O)[C@H](Cc2ccccc2)NC(=O)[C@H](C)NC(=O)[C@H](CO)NC(=O)CNC(=O)[C@H](CCC(=O)O)NC(C)=O)CSSC[C@@H](C(=O)N[C@H](C(=O)N[C@@H](CCC(=O)O)C(N)=O)[C@@H](C)O)NC(=O)[C@H](CCCNC(=N)N)NC(=O)[C@H](Cc2c[nH]cn2)NC(=O)[C@H](CCC(=O)O)NC(=O)CNC(=O)[C@H](Cc2c[nH]c3ccccc23)NC(=O)[C@H](CC(=O)O)NC(=O)[C@H](CCC(N)=O)NC(=O)[C@H](Cc2ccc3ccccc3c2)NC1=O
B10: Compound 41 (peptide)
peptide: Ac-SAICIWQDWGEHRC[Sar]E-NH2
modifications: disulfide 4-14
SMILES: CC[C@H](C)[C@H](NC(=O)[C@H](C)NC(=O)[C@H](CO)NC(C)=O)C(=O)N[C@H]1CSSC[C@@H](C(=O)N(C)CC(=O)N[C@@H](CCC(=O)O)C(N)=O)NC(=O)[C@H](CCCNC(=N)N)NC(=O)[C@H](Cc2c[nH]cn2)NC(=O)[C@H](CCC(=O)O)NC(=O)CNC(=O)[C@H](Cc2c[nH]c3ccccc23)NC(=O)[C@H](CC(=O)O)NC(=O)[C@H](CCC(N)=O)NC(=O)[C@H](Cc2c[nH]c3ccccc23)NC(=O)[C@H]([C@@H](C)CC)NC1=O
B11: Ac-IC(1)X…(1)T-NH2 with Phenylalanine at position 3 (peptide)
peptide: Ac-ICFWQDWGEHRCT-NH2
modifications: disulfide 2-12
SMILES: CC[C@H](C)[C@H](NC(C)=O)C(=O)N[C@H]1CSSC[C@@H](C(=O)N[C@H](C(N)=O)[C@@H](C)O)NC(=O)[C@H](CCCNC(=N)N)NC(=O)[C@H](Cc2c[nH]cn2)NC(=O)[C@H](CCC(=O)O)NC(=O)CNC(=O)[C@H](Cc2c[nH]c3ccccc23)NC(=O)[C@H](CC(=O)O)NC(=O)[C@H](CCC(N)=O)NC(=O)[C@H](Cc2c[nH]c3ccccc23)NC(=O)[C@H](Cc2ccccc2)NC1=O
B12: Compound 40 (peptide)
peptide: Ac-GSAICIWQDWGEHRC[Sar]E-NH2
modifications: disulfide 5-15
SMILES: CC[C@H](C)[C@H](NC(=O)[C@H](C)NC(=O)[C@H](CO)NC(=O)CNC(C)=O)C(=O)N[C@H]1CSSC[C@@H](C(=O)N(C)CC(=O)N[C@@H](CCC(=O)O)C(N)=O)NC(=O)[C@H](CCCNC(=N)N)NC(=O)[C@H](Cc2c[nH]cn2)NC(=O)[C@H](CCC(=O)O)NC(=O)CNC(=O)[C@H](Cc2c[nH]c3ccccc23)NC(=O)[C@H](CC(=O)O)NC(=O)[C@H](CCC(N)=O)NC(=O)[C@H](Cc2c[nH]c3ccccc23)NC(=O)[C@H]([C@@H](C)CC)NC1=O
B13: Compound 52 (peptide)
peptide: Ac-ICI[2Nal]QDWGEHRCTGAES-NH2
modifications: disulfide 2-12
SMILES: CC[C@H](C)[C@H](NC(C)=O)C(=O)N[C@H]1CSSC[C@@H](C(=O)N[C@H](C(=O)NCC(=O)N[C@@H](C)C(=O)N[C@@H](CCC(=O)O)C(=O)N[C@@H](CO)C(N)=O)[C@@H](C)O)NC(=O)[C@H](CCCNC(=N)N)NC(=O)[C@H](Cc2c[nH]cn2)NC(=O)[C@H](CCC(=O)O)NC(=O)CNC(=O)[C@H](Cc2c[nH]c3ccccc23)NC(=O)[C@H](CC(=O)O)NC(=O)[C@H](CCC(N)=O)NC(=O)[C@H](Cc2ccc3ccccc3c2)NC(=O)[C@H]([C@@H](C)CC)NC1=O
B14: Compound 64 (peptide)
peptide: Ac-FCI[2Nal]QDWGEHRCTGAES-NH2
modifications: disulfide 2-12
SMILES: CC[C@H](C)[C@@H]1NC(=O)[C@@H](NC(=O)[C@H](Cc2ccccc2)NC(C)=O)CSSC[C@@H](C(=O)N[C@H](C(=O)NCC(=O)N[C@@H](C)C(=O)N[C@@H](CCC(=O)O)C(=O)N[C@@H](CO)C(N)=O)[C@@H](C)O)NC(=O)[C@H](CCCNC(=N)N)NC(=O)[C@H](Cc2c[nH]cn2)NC(=O)[C@H](CCC(=O)O)NC(=O)CNC(=O)[C@H](Cc2c[nH]c3ccccc23)NC(=O)[C@H](CC(=O)O)NC(=O)[C@H](CCC(N)=O)NC(=O)[C@H](Cc2ccc3ccccc3c2)NC1=O

molecular target: Human C3 (human, UniProt P01024 23-1663); assay: cell-based or functional assay
Sequence (P01024 23-1663 limits assumed): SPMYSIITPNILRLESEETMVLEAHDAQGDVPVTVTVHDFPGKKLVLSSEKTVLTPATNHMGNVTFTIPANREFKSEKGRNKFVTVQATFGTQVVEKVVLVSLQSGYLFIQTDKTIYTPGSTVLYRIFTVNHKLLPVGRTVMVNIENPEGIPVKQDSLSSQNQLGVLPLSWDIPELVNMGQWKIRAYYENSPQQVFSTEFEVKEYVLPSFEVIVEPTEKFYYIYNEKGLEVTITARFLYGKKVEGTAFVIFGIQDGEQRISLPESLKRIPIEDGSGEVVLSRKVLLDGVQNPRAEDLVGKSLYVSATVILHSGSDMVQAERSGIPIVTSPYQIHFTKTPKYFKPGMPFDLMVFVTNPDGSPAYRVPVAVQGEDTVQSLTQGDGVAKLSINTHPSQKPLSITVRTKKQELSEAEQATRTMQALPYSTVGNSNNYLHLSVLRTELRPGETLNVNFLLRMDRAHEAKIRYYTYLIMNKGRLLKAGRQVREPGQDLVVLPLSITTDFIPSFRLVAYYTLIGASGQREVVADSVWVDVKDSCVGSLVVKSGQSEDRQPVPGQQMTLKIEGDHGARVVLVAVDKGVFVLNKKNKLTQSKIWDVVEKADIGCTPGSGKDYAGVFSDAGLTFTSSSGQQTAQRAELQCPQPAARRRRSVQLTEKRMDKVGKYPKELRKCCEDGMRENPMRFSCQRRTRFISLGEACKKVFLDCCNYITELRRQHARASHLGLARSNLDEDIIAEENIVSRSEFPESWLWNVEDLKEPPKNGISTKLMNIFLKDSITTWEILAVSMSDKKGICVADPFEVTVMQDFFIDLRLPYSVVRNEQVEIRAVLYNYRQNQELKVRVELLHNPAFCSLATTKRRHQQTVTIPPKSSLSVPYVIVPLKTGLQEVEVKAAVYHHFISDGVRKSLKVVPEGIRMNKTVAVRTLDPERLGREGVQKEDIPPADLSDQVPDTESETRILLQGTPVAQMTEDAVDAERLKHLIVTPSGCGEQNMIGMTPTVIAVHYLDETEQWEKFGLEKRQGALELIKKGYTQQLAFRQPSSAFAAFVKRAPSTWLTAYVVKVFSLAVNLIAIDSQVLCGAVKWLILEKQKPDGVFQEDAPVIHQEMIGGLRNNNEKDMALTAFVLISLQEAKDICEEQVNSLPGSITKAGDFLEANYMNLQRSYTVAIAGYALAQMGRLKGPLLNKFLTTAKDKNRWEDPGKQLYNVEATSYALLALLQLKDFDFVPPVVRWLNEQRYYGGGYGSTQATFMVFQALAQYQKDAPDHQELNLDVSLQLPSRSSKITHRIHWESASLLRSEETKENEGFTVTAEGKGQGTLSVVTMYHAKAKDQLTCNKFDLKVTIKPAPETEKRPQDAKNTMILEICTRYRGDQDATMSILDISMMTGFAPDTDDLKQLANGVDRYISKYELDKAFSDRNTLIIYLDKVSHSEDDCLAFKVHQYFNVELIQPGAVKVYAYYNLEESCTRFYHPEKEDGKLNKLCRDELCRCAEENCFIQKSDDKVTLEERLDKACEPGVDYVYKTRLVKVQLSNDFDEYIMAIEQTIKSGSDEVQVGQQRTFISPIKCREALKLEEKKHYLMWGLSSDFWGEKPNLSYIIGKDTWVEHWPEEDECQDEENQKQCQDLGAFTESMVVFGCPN

| Binder | IC50[nM], inhibition of hemolysis | IC50, CP hemolysis |
| --- | --- | --- |
| B1 | < 250 nM | – |
| B2 | < 100 nM | – |
| B3 | < 100 nM | – |
| B4 | < 100 nM | – |
| B5 | – | 500 nM |
| B6 | < 100 nM | – |
| B7 | < 100 nM | – |
| B8 | < 100 nM | – |
| B9 | < 100 nM | – |
| B10 | < 250 nM | – |
| B11 | – | > 10000 nM |
| B12 | < 250 nM | – |
| B13 | < 100 nM | – |
| B14 | < 100 nM | – |
